In article PMC3258144 (Nucleic Acids Research, 2011):

B1: Dnmt3a-C K840E (domain or fragment, mouse, UniProt O88508 608-908, looked up)
chain: NHDQEFDPPKVYPPVPAEKRKPIRVLSLFDGIATGLLVLKDLGIQVDRYIASEVCEDSITVGMVRHQGKIMYVGDVRSVTQKHIQEWGPFDLVIGGSPCNDLSIVNPARKGLYEGTGRLFFEFYRLLHDARPKEGDDRPFFWLFENVVAMGVSDKRDISRFLESNPVMIDAKEVSAAHRARYFWGNLPGMNRPLASTVNDKLELQECLEHGRIAKFSKVRTITTRSNSIKQGEDQHFPVFMNEKEDILWCTEMERVFGFPVHYTDVSNMSRLARQRLLGRSWSVPVIRHLFAPLKEYFACV
B2: Dnmt3a-C E850H (domain or fragment, mouse, UniProt O88508 608-908, looked up)
chain: NHDQEFDPPKVYPPVPAEKRKPIRVLSLFDGIATGLLVLKDLGIQVDRYIASEVCEDSITVGMVRHQGKIMYVGDVRSVTQKHIQEWGPFDLVIGGSPCNDLSIVNPARKGLYEGTGRLFFEFYRLLHDARPKEGDDRPFFWLFENVVAMGVSDKRDISRFLESNPVMIDAKEVSAAHRARYFWGNLPGMNRPLASTVNDKLELQECLEHGRIAKFSKVRTITTRSNSIKQGKDQHFPVFMNHKEDILWCTEMERVFGFPVHYTDVSNMSRLARQRLLGRSWSVPVIRHLFAPLKEYFACV
B3: Dnmt3a-C R827E (domain or fragment, mouse, UniProt O88508 608-908, looked up)
chain: NHDQEFDPPKVYPPVPAEKRKPIRVLSLFDGIATGLLVLKDLGIQVDRYIASEVCEDSITVGMVRHQGKIMYVGDVRSVTQKHIQEWGPFDLVIGGSPCNDLSIVNPARKGLYEGTGRLFFEFYRLLHDARPKEGDDRPFFWLFENVVAMGVSDKRDISRFLESNPVMIDAKEVSAAHRARYFWGNLPGMNRPLASTVNDKLELQECLEHGRIAKFSKVETITTRSNSIKQGKDQHFPVFMNEKEDILWCTEMERVFGFPVHYTDVSNMSRLARQRLLGRSWSVPVIRHLFAPLKEYFACV

Tests used:
native gel or EMSA = molecular target: the molecule itself; assay: native gel or EMSA
[1] = molecular target: the molecule itself; assay: fluorescence polarisation

Protein	binding result (native gel or EMSA)	binding result [1]
B1	binds	–
B2	binds	–
B3	binds	binds
